Laboratory results published in patent publication US20170119790A1, “Agents, Uses and Methods” (CYTOGUIDE A/S, priority 2009, published 2017).

Key:
[1] = tested on: non-transfected Flp-In CHO cells; test: Cellular binding and uptake of 125I-labeled anti-CD163, control cells; type: cell-based, Chinese hamster; details: 125I-labelled mAb
Description: (§1) Endocytosis of ^125I-labeled anti-CD163 was investigated in CD163 transfected Flp-In Chinese hamster ovary (CHO) cells and mock-transfected Flp-In as described (Madsen, M., Moller, H. J., Nielsen, M. J., Jacobsen, C., Graversen, J. H., van den Berg, T. and Moestrup, S. K. (2004) Molecular characterization of the haptoglobin.hemoglobin receptor CD163. Ligand binding properties of the scavenger receptor cysteine-rich domain region. J. Biol. Chem., 279, 51561-51567.)

mouse CD163 1-5 wt = biological target: T1, mouse CD163 1-5 wt (Mus musculus, UniProt Q2VLH6); test: Western blotting of mouse CD163 and knock in mutant; type: binding
T1 construct: CD163 domain 1-5 was used for expression of mouse CD163 domain 1-5/V5/His; made in house; host or cells: Lenti-X 293T, transient; captured from supernatant on Ni-NTA
T1 sequence (Q2VLH6 with tags, fused parts or gaps): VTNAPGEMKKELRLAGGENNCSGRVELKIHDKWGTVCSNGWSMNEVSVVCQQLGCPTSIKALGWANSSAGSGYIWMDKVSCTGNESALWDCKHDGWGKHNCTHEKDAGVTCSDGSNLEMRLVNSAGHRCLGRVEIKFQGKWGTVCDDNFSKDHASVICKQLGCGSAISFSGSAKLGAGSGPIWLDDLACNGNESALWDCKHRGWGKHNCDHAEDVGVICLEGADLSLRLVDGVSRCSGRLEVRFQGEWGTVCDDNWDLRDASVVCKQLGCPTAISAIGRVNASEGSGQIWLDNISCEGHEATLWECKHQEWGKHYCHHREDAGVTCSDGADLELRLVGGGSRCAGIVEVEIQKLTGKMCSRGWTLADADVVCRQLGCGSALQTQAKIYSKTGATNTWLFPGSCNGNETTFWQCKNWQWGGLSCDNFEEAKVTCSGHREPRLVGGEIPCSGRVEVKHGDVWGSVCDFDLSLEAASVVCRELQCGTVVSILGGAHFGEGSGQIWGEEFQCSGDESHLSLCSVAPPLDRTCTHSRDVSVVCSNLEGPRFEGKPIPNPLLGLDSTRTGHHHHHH
Protocol: The mouse CD163 1-5 and the mouse CD163 domain 1 mutant were expressed transient in Lenti-X 293T cells as follows: 1.5 μg of the DNA was diluted in OptiCHOPro SFM (8 mM L-glutamine) to a total volume of 50 μl The DNA was gently mixed with 50 μl of OptiCHOPro SFM containing 1.5 μl Freestyle MAX transfection reagent (Invitrogen, Taastrup, Denmark). After 10 min of incubation at room temperature the complexes were added to 1×10^6 cells in 1 ml. Three days later, the cell supernatants were harvested by centrifugation.
Tris pH 8 buffer, and cell culture supernatants were added 60 μl of Ni-NTA His-bind resin slurry. After 1 hour shaking at 4° C. the supernatants were aspired and each of the purifications were eluted with 90 μl 50 mM Tris pH 8, 25 mM EDTA buffer.
90 μl of each of the eluates were added 30 μl of 4×LDS sample buffer. 20 μl samples of each supernatant and 8 μl SeeBlue plus2 prestained marker were loaded on NuPage 4-12% Bis-Tris-Gels (Invitrogen, Taastrup, Denmark) and the SDS-PAGEs were run with MOPS running buffer according to instructions of the manufacturer (200 V constant for 50 min). Blotting to PVDF membranes (Invitrogen, Taastrup, Denmark) was done on an iBLOT device according to instructions of the manufacturer. After blotting the membranes were washed briefly in 1×PBS 0.1% Tween and blocked for 30 min in 1×PBS 2% Tween at room temperature with shaking. […]

[2] = biological target: T2, CD163 transfected Flp-In CHO cells (Homo sapiens, UniProt Q86VB7); test: Cellular binding and uptake (endocytosis) of 125I-labeled anti-CD163; type: cell-based
T2 construct: Stably transfected Chinese hamster ovary (CHO) cells expressing the full-length human CD163; expressed in transfected cells
T2 sequence (Q86VB7 42-1156): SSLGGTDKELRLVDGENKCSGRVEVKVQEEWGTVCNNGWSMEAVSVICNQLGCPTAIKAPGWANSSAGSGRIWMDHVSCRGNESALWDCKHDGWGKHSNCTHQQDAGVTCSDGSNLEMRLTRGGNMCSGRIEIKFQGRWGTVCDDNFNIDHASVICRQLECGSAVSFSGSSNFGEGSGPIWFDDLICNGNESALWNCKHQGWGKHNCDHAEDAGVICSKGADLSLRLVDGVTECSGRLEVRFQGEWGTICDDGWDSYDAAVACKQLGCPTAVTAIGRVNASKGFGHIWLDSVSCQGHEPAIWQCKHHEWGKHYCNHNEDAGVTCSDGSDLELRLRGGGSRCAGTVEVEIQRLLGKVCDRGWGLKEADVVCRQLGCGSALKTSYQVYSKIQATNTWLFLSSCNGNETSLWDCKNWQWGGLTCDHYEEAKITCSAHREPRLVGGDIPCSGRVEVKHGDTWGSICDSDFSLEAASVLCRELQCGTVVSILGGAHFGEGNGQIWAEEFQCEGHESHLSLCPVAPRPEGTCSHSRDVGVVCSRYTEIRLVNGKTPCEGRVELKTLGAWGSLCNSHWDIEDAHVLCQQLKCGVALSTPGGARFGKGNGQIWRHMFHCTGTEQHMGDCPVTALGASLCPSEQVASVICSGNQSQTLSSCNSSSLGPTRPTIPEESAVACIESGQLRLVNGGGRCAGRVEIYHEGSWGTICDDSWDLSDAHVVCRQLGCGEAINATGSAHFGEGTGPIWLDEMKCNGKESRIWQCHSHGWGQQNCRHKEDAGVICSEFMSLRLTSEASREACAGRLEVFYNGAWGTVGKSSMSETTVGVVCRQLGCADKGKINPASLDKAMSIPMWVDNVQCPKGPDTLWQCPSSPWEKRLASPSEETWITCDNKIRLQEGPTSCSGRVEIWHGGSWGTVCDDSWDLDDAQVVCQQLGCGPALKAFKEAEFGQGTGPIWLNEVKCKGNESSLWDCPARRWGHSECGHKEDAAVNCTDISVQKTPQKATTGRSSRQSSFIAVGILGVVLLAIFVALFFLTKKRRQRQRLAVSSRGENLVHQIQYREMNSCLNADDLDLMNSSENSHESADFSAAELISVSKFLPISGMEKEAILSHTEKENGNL
Protocol: Monocytes were isolated from PBMC by negative selection using magnetic beads from Dynal (Dynabeads® MyPure™ Monocyte Kit 2; Invitrogen A/S, Taastrup, Denmark) according to instructions provided by the manufacturer. Monocyte preparations were more than 95% (CD14^+) pure determined by flow cytometry. The isolated cells were washed twice with phosphate-buffered saline. Monocyte-derived macrophages (MDMs) were prepared by cell culture of monocytes (approximately 1×10^7 cells) for 4 days in 5% CO2 and 37° C. in RPMI 1640 media (RPMI 1640+25 mM HEPES+I-glutamine) (Invitrogen Corporation, Carlsbad, Calif., USA) with 20% FCS containing 100 ng/ml of M-CSF. MDMs were then detached from the flask by incubation with cell dissociation buffer (Invitrogen A/S, Taastrup, Denmark) for 30 minutes at 4 °C, then flushed, and scraped. The cells were then cultured for 24 hours in RPMI 1640 media (RPMI 1640+25 mM HEPES+I-glutamine) (Invitrogen Corporation, Carlsbad, Calif., USA) supplemented with 20% FCS containing 100 ng/ml of M-CSF at 37° C. in 95% air and 5% CO2 in Lab-Tek™ Chamber Slides (Thermo Fisher Scientific, Roskilde, Denmark). 200 nM dexamethasone (Merck KGaA, Darmstadt, Germany) was added during culture to increase CD163 expression. Stably transfected Chinese hamster ovary (CHO) cells expressing the full-length human CD163, as described above, were cultured in serum-free CHO medium (HyQ-CCM, HyClone, Logan, Utah) containing 300 μg/ml Hygromycin B, as previously described (2).
as §1

[3] = biological target: T3, CHO cells expressing CD163 (Homo sapiens, UniProt Q86VB7); test: CD163 antibody binding and uptake in CHO cells expressing CD163 (confocal microscopy); type: cell-based; details: 0 or 30 minutes, FIG. 7
T3 construct: Stably transfected Chinese hamster ovary (CHO) cells expressing the full-length human CD163; expressed in transfected cells
T3 sequence (Q86VB7 42-1156): as above
Protocol: Monocytes were isolated from PBMC by negative selection using magnetic beads from Dynal (Dynabeads® MyPure™ Monocyte Kit 2; Invitrogen A/S, Taastrup, Denmark) according to instructions provided by the manufacturer. Monocyte preparations were more than 95% (CD14^+) pure determined by flow cytometry. The isolated cells were washed twice with phosphate-buffered saline. Monocyte-derived macrophages (MDMs) were prepared by cell culture of monocytes (approximately 1×10^7 cells) for 4 days in 5% CO2 and 37° C. in RPMI 1640 media (RPMI 1640+25 mM HEPES+I-glutamine) (Invitrogen Corporation, Carlsbad, Calif., USA) with 20% FCS containing 100 ng/ml of M-CSF. MDMs were then detached from the flask by incubation with cell dissociation buffer (Invitrogen A/S, Taastrup, Denmark) for 30 minutes at 4 °C, then flushed, and scraped. […]
MDMs or CHO cells were washed with 4° C. cold D-PBS, pH 7.4, containing 1% BSA in Lab-Tek™ Chamber Slides (Thermo Fisher Scientific, Roskilde, Denmark). […] Fluorescence was visualized using a Zeiss Axiovert 200M microscope (Carl Zeiss GmbH, Jena, Germany) with an ×100 oil-immersion objective. […] Alternatively, immunostained cells were analyzed by confocal immunofluorescence microscopy using a Zeiss LSM-510 confocal microscope (Carl Zeiss GmbH, Jena, Germany). […]

B1: MAC2-158: anti-human CD163 murine mAb, binds SRCR domain 1, IQ Products; VH SEQ ID NO: 1, VL SEQ ID NO: 2 (antibody, V domains shown)
VH: DVQLQESGPGLVKPSQSLSLTCTVTGYSITSDYAWNWIRQFPGNKLEWMGYITYSGITNYNPSLKSQISITRDTSKNQFFLQLNSVTTEDTATYYCVSGTYYFDYWGQGTTLTVSS
VL: SVVMTQTPKSLLISIGDRVTITCKASQSVSSDVAWFQQKPGQSPKPLIYYASNRYTGVPDRFTGSGYGTDFTFTISSVQAEDLAVYFCGQDYTSPRTFGGGTKLEIKRA
modifications: Mac2-158 VH; Mac2-158 VL
In the case of B1, the “percentage of cell-associated radioactivity reached” value [1] is reported as 1.37%, the “binding in western blot” value (mouse CD163 1-5 wt) is reported as “did not bind” and the “time course of cell-associated radioactivity (bound or internalized)” value ([2]; 125I-labelled mAb, increasing time points) is reported as “did not reach a plateau”. The “percentage of cell-associated radioactivity reached” value ([2]; 125I-labelled mAb, stable CD163 transfected Flp-In CHO cells) was 61.27%, the “cellular uptake and binding to CD163-expressing cells” value ([2]; compared with the other tested antibodies, FIG. 5) was “considerably higher” and the binding and uptake [3] was “best binding and uptake”.
